Measured values taken from the supplement of paper PMC7125110.
± gives the standard error. Variants at the floor of the assay were thinned out.

B1: glmS ribozyme (parent)
chain: AUAAAAGCGCCAGAACUACAGAAAUGUAGUUGACGAGGAGGAGGUUUAUCGAAUUUUCGGCGGAUGCCUCCAAA

Experiments:
Settings in all cases: with glucosamine-6-phosphate
glucosamine-6-phosphate [1] = variants of: B1; experiment: self-cleavage kobs at 40 uM GlcN6P; higher = faster cleavage; RNA array
Summary of the method: (§1)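 Ribozyme variants carrying barcodes were transcribed in situ on sequenced MiSeq chips by E. coli RNA polymerase and tracked at 37 °C with a hybridised Cy3 probe. They were exposed to 40 μM to 10 mM glucosamine-6-phosphate in HEPES/KCl/Mg(OAc)2 buffer. kobs came from exponential decay fits of normalised per-tile medians, and kcat and KM from weighted Michaelis–Menten fits.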

glucosamine-6-phosphate [2] = variants of: B1; experiment: self-cleavage kobs at 160 uM GlcN6P; higher = faster cleavage; RNA array
Summary of the method: as §1

glucosamine-6-phosphate [3] = variants of: B1; experiment: self-cleavage kobs at 640 uM GlcN6P; higher = faster cleavage; RNA array
Summary of the method: as §1

glucosamine-6-phosphate [4] = variants of: B1; experiment: self-cleavage kobs at 2500 uM GlcN6P; higher = faster cleavage; RNA array
Summary of the method: as §1

glucosamine-6-phosphate [5] = variants of: B1; experiment: self-cleavage kobs at 10000 uM GlcN6P; higher = faster cleavage; RNA array
Summary of the method: as §1

Variant | self-cleavage kobs at 40 uM GlcN6P (glucosamine-6-phosphate [1]) [s⁻¹] | self-cleavage kobs at 160 uM GlcN6P (glucosamine-6-phosphate [2]) [s⁻¹] | self-cleavage kobs at 640 uM GlcN6P (glucosamine-6-phosphate [3]) [s⁻¹] | self-cleavage kobs at 2500 uM GlcN6P (glucosamine-6-phosphate [4]) [s⁻¹] | self-cleavage kobs at 10000 uM GlcN6P (glucosamine-6-phosphate [5]) [s⁻¹]
G44C U46G | < 1e-05 | < 1e-05 | < 1e-05 | < 1e-05 | –
U45A U54G | 0.00129 ± 0.00023 | 0.00383 ± 0.00079 | 0.0132 ± 0.0028 | 0.0113 ± 0.0021 | 0.0501 ± 0.011
U46C C50G | < 1e-05 | – | < 1e-05 | – | –
U47A C50A U54A | < 1e-05 | – | – | – | –
G44A G51A U65G C67G | < 1e-05 | < 1e-05 | < 1e-05 | < 1e-05 | < 1e-05
U47G C70U | 0.000323 ± 3.2e-05 | 0.000641 ± 8.8e-05 | 0.00192 ± 0.00055 | 0.000583 ± 0.00011 | –
G44U C50G | < 1e-05 | – | – | – | < 1e-05
U45C G60U | < 1e-05 | < 1e-05 | < 1e-05 | – | < 1e-05
U46A G59U | < 1e-05 | < 1e-05 | < 1e-05 | – | < 1e-05
G44A G63A | < 1e-05 | < 1e-05 | < 1e-05 | < 1e-05 | –
G44U G60C | < 1e-05 | < 1e-05 | < 1e-05 | < 1e-05 | < 1e-05
U46G C58U | < 1e-05 | – | – | – | –
G44U A53C C58U C71U | < 1e-05 | < 1e-05 | < 1e-05 | < 1e-05 | < 1e-05
G44C U49G | < 1e-05 | – | – | < 1e-05 | < 1e-05
U45G G63U A64C | < 1e-05 | – | < 1e-05 | – | –
U45G G62A | < 1e-05 | – | < 1e-05 | < 1e-05 | < 1e-05
U46C A64G | 0.000191 ± 2.5e-05 | – | – | – | 0.00537 ± 0.0008
U46C A64U | < 1e-05 | – | – | – | 4.69e-05 ± 1.5e-05
U47G A48U A52C | < 1e-05 | – | – | – | < 1e-05
U47C G63C | < 1e-05 | – | < 1e-05 | < 1e-05 | < 1e-05
U46G U54C C67U | 9.53e-05 ± 1.8e-05 | – | – | – | 0.00207 ± 0.00047
